# According to patent US20140087995A1 (published 2014):
# Numbered stars: 1 amine (or outer) side, 2 acyl side, 3 side chain; on linkers, the order of the positions; unused ones are H or OH. Bridge positions count the residues as written; N and C are the ends. Side chains are listed from the residue outwards. Ends that are not written are not given here. * marks the point of attachment. C20 diacid = O=C(O)CCCCCCCCCCCCCCCCCCC(=O)*; γGlu = O=C(O)[C@H](CCC(=O)[*:2])N[*:1]; AEEA = NCCOCCOCC(=O)O
# T1: human calcitonin receptor (human, UniProt P30988 25-474)
# T1 construct: whole, on cells; Used as membranes prepared from a BHK tk'ts 13 cell line stably transfected with the human calcitonin receptor (Assay VII); also called hCTR; hCT
# T1 sequence (looked up): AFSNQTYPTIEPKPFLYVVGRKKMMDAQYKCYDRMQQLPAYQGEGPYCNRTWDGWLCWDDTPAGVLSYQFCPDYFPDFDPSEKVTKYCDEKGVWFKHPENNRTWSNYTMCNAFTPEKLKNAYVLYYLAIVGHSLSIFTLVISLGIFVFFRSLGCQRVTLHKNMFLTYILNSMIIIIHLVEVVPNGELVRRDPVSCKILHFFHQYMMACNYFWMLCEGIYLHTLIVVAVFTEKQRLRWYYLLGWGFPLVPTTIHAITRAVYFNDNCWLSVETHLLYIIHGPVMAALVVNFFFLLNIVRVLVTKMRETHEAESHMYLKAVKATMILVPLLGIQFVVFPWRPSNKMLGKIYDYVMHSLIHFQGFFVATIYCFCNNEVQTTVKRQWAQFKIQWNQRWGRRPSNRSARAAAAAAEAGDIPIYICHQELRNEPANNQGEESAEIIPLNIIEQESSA
# T2: rat amylin receptor (rat calcitonin receptor + rat RAMP 3) (rat, UniProt P32214 25-516; Q9JJ73 23-147)
# T2 construct: whole, on cells; Used as membranes prepared from BHK tk'ts 13 cells transiently transfected with rat calcitonin receptor and rat RAMP 3 (Assay VI); also called rAmylin-R; rat amylin 3(a) receptor
# T2 sequence (looked up) 1: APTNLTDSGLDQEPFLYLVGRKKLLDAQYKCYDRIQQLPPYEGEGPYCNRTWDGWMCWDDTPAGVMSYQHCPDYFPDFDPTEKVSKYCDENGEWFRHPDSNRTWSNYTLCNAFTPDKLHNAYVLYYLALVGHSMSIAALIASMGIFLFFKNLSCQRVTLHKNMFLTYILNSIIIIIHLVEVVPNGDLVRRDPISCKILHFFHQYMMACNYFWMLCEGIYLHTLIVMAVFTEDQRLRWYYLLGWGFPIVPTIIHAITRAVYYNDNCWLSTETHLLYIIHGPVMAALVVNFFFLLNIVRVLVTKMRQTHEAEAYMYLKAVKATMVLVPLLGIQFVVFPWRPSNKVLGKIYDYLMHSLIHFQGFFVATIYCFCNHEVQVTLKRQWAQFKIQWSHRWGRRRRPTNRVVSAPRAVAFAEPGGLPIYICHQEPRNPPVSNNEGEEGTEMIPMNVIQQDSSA
# T2 sequence (looked up) 2: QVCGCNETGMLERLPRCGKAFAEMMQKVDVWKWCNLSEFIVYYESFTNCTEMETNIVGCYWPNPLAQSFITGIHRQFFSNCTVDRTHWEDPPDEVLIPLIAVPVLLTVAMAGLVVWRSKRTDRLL
# T3: rat calcitonin receptor (rat, UniProt P32214 25-516)
# T3 construct: whole, on cells; Used as membranes prepared from BHK tk'ts 13 cells transiently transfected with the rat calcitonin receptor (Assay VIII); also called rCTR; rat calcitonin (a) receptor
# T3 sequence (looked up): T2 sequence (looked up) 1
# B1: N^ε-[(4S)-4-carboxy-4-(19-carboxynonadecanoylamino)butanoyl]Lys[Arg1,Arg17,Pro21,Pro27,His35]-h-amylin (peptide)
# peptide: K([γGlu-C20 diacid])RCNTATCATQRLANFLRHSSPNFGAIPSSTNVGSHTY-NH2
# modifications: disulfide 3-8; N-terminus assumed
# SMILES: CC[C@H](C)[C@H](NC(=O)[C@H](C)NC(=O)CNC(=O)[C@H](Cc1ccccc1)NC(=O)[C@H](CC(N)=O)NC(=O)[C@@H]1CCCN1C(=O)[C@H](CO)NC(=O)[C@H](CO)NC(=O)[C@H](Cc1c[nH]cn1)NC(=O)[C@H](CCCNC(=N)N)NC(=O)[C@H](CC(C)C)NC(=O)[C@H](Cc1ccccc1)NC(=O)[C@H](CC(N)=O)NC(=O)[C@H](C)NC(=O)[C@H](CC(C)C)NC(=O)[C@H](CCCNC(=N)N)NC(=O)[C@H](CCC(N)=O)NC(=O)[C@@H](NC(=O)[C@H](C)NC(=O)[C@@H]1CSSC[C@H](NC(=O)[C@H](CCCNC(=N)N)NC(=O)[C@@H](N)CCCCNC(=O)CC[C@H](NC(=O)CCCCCCCCCCCCCCCCCCC(=O)O)C(=O)O)C(=O)N[C@@H](CC(N)=O)C(=O)N[C@@H]([C@@H](C)O)C(=O)N[C@@H](C)C(=O)N[C@@H]([C@@H](C)O)C(=O)N1)[C@@H](C)O)C(=O)N1CCC[C@H]1C(=O)N[C@@H](CO)C(=O)N[C@@H](CO)C(=O)N[C@H](C(=O)N[C@@H](CC(N)=O)C(=O)N[C@H](C(=O)NCC(=O)N[C@@H](CO)C(=O)N[C@@H](Cc1c[nH]cn1)C(=O)N[C@H](C(=O)N[C@@H](Cc1ccc(O)cc1)C(N)=O)[C@@H](C)O)C(C)C)[C@@H](C)O
# notes: Analogue of human amylin; also called compound 44
# B2: N^-1-[(4S)-4-carboxy-4-(19-carboxynonadecanoylamino)butanoyl]-Gly[Arg1,Arg17,Pro21,Pro27]-h-amylin (peptide)
# peptide: {C20 diacid-γGlu}-GRCNTATCATQRLANFLRHSSPNFGAIPSSTNVGSNTY-NH2
# modifications: disulfide 3-8
# SMILES: CC[C@H](C)[C@H](NC(=O)[C@H](C)NC(=O)CNC(=O)[C@H](Cc1ccccc1)NC(=O)[C@H](CC(N)=O)NC(=O)[C@@H]1CCCN1C(=O)[C@H](CO)NC(=O)[C@H](CO)NC(=O)[C@H](Cc1c[nH]cn1)NC(=O)[C@H](CCCNC(=N)N)NC(=O)[C@H](CC(C)C)NC(=O)[C@H](Cc1ccccc1)NC(=O)[C@H](CC(N)=O)NC(=O)[C@H](C)NC(=O)[C@H](CC(C)C)NC(=O)[C@H](CCCNC(=N)N)NC(=O)[C@H](CCC(N)=O)NC(=O)[C@@H](NC(=O)[C@H](C)NC(=O)[C@@H]1CSSC[C@H](NC(=O)[C@H](CCCNC(=N)N)NC(=O)CNC(=O)CC[C@H](NC(=O)CCCCCCCCCCCCCCCCCCC(=O)O)C(=O)O)C(=O)N[C@@H](CC(N)=O)C(=O)N[C@@H]([C@@H](C)O)C(=O)N[C@@H](C)C(=O)N[C@@H]([C@@H](C)O)C(=O)N1)[C@@H](C)O)C(=O)N1CCC[C@H]1C(=O)N[C@@H](CO)C(=O)N[C@@H](CO)C(=O)N[C@H](C(=O)N[C@@H](CC(N)=O)C(=O)N[C@H](C(=O)NCC(=O)N[C@@H](CO)C(=O)N[C@@H](CC(N)=O)C(=O)N[C@H](C(=O)N[C@@H](Cc1ccc(O)cc1)C(N)=O)[C@@H](C)O)C(C)C)[C@@H](C)O
# notes: Analogue of human amylin; also called compound 46
# B3: N^-1-[(4S)-4-carboxy-4-(19-carboxynonadecanoylamino)butanoyl]-Gly[Arg1,Arg17,Pro21,Pro27,His35]-h-amylin (peptide)
# peptide: {C20 diacid-γGlu}-GRCNTATCATQRLANFLRHSSPNFGAIPSSTNVGSHTY-NH2
# modifications: disulfide 3-8
# SMILES: CC[C@H](C)[C@H](NC(=O)[C@H](C)NC(=O)CNC(=O)[C@H](Cc1ccccc1)NC(=O)[C@H](CC(N)=O)NC(=O)[C@@H]1CCCN1C(=O)[C@H](CO)NC(=O)[C@H](CO)NC(=O)[C@H](Cc1c[nH]cn1)NC(=O)[C@H](CCCNC(=N)N)NC(=O)[C@H](CC(C)C)NC(=O)[C@H](Cc1ccccc1)NC(=O)[C@H](CC(N)=O)NC(=O)[C@H](C)NC(=O)[C@H](CC(C)C)NC(=O)[C@H](CCCNC(=N)N)NC(=O)[C@H](CCC(N)=O)NC(=O)[C@@H](NC(=O)[C@H](C)NC(=O)[C@@H]1CSSC[C@H](NC(=O)[C@H](CCCNC(=N)N)NC(=O)CNC(=O)CC[C@H](NC(=O)CCCCCCCCCCCCCCCCCCC(=O)O)C(=O)O)C(=O)N[C@@H](CC(N)=O)C(=O)N[C@@H]([C@@H](C)O)C(=O)N[C@@H](C)C(=O)N[C@@H]([C@@H](C)O)C(=O)N1)[C@@H](C)O)C(=O)N1CCC[C@H]1C(=O)N[C@@H](CO)C(=O)N[C@@H](CO)C(=O)N[C@H](C(=O)N[C@@H](CC(N)=O)C(=O)N[C@H](C(=O)NCC(=O)N[C@@H](CO)C(=O)N[C@@H](Cc1c[nH]cn1)C(=O)N[C@H](C(=O)N[C@@H](Cc1ccc(O)cc1)C(N)=O)[C@@H](C)O)C(C)C)[C@@H](C)O
# notes: Analogue of human amylin; also called compound 47
# B4: N^ε1-[(4S)-4-carboxy-4-(19-carboxynonadecanoylamino)butanoyl]-[Arg17,Pro21,Pro27]-h-amylin (peptide)
# peptide: K([γGlu-C20 diacid])CNTATCATQRLANFLRHSSPNFGAIPSSTNVGSNTY-NH2
# modifications: disulfide 2-7; N-terminus assumed
# SMILES: CC[C@H](C)[C@H](NC(=O)[C@H](C)NC(=O)CNC(=O)[C@H](Cc1ccccc1)NC(=O)[C@H](CC(N)=O)NC(=O)[C@@H]1CCCN1C(=O)[C@H](CO)NC(=O)[C@H](CO)NC(=O)[C@H](Cc1c[nH]cn1)NC(=O)[C@H](CCCNC(=N)N)NC(=O)[C@H](CC(C)C)NC(=O)[C@H](Cc1ccccc1)NC(=O)[C@H](CC(N)=O)NC(=O)[C@H](C)NC(=O)[C@H](CC(C)C)NC(=O)[C@H](CCCNC(=N)N)NC(=O)[C@H](CCC(N)=O)NC(=O)[C@@H](NC(=O)[C@H](C)NC(=O)[C@@H]1CSSC[C@H](NC(=O)[C@@H](N)CCCCNC(=O)CC[C@H](NC(=O)CCCCCCCCCCCCCCCCCCC(=O)O)C(=O)O)C(=O)N[C@@H](CC(N)=O)C(=O)N[C@@H]([C@@H](C)O)C(=O)N[C@@H](C)C(=O)N[C@@H]([C@@H](C)O)C(=O)N1)[C@@H](C)O)C(=O)N1CCC[C@H]1C(=O)N[C@@H](CO)C(=O)N[C@@H](CO)C(=O)N[C@H](C(=O)N[C@@H](CC(N)=O)C(=O)N[C@H](C(=O)NCC(=O)N[C@@H](CO)C(=O)N[C@@H](CC(N)=O)C(=O)N[C@H](C(=O)N[C@@H](Cc1ccc(O)cc1)C(N)=O)[C@@H](C)O)C(C)C)[C@@H](C)O
# notes: Analogue of human amylin; also called compound 48
# B5: N^ε-[2-[2-[2-[[(4S)-4-carboxy-4-(19-carboxynonadecanoylamino)butanoyl]amino]ethoxy]ethoxy]acetyl]Lys[Arg1,Arg17,Pro21,Pro27,His35]-h-amylin (peptide)
# peptide: K([AEEA-γGlu-C20 diacid])RCNTATCATQRLANFLRHSSPNFGAIPSSTNVGSHTY-NH2
# modifications: disulfide 3-8; N-terminus assumed
# SMILES: CC[C@H](C)[C@H](NC(=O)[C@H](C)NC(=O)CNC(=O)[C@H](Cc1ccccc1)NC(=O)[C@H](CC(N)=O)NC(=O)[C@@H]1CCCN1C(=O)[C@H](CO)NC(=O)[C@H](CO)NC(=O)[C@H](Cc1c[nH]cn1)NC(=O)[C@H](CCCNC(=N)N)NC(=O)[C@H](CC(C)C)NC(=O)[C@H](Cc1ccccc1)NC(=O)[C@H](CC(N)=O)NC(=O)[C@H](C)NC(=O)[C@H](CC(C)C)NC(=O)[C@H](CCCNC(=N)N)NC(=O)[C@H](CCC(N)=O)NC(=O)[C@@H](NC(=O)[C@H](C)NC(=O)[C@@H]1CSSC[C@H](NC(=O)[C@H](CCCNC(=N)N)NC(=O)[C@@H](N)CCCCNC(=O)COCCOCCNC(=O)CC[C@H](NC(=O)CCCCCCCCCCCCCCCCCCC(=O)O)C(=O)O)C(=O)N[C@@H](CC(N)=O)C(=O)N[C@@H]([C@@H](C)O)C(=O)N[C@@H](C)C(=O)N[C@@H]([C@@H](C)O)C(=O)N1)[C@@H](C)O)C(=O)N1CCC[C@H]1C(=O)N[C@@H](CO)C(=O)N[C@@H](CO)C(=O)N[C@H](C(=O)N[C@@H](CC(N)=O)C(=O)N[C@H](C(=O)NCC(=O)N[C@@H](CO)C(=O)N[C@@H](Cc1c[nH]cn1)C(=O)N[C@H](C(=O)N[C@@H](Cc1ccc(O)cc1)C(N)=O)[C@@H](C)O)C(C)C)[C@@H](C)O
# notes: Analogue of human amylin; also called compound 45
# Molecular target: T1, human calcitonin receptor
# Assay: IC50 on human CTR divided by IC50 on human amylin receptor (Assays VII/V)
# How it was run: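 Membranes (35 ng/μL final) + SPA beads, 50 mM Hepes pH 7.4 buffer with 1 mM CaCl2, 5 mM MgCl₂, 0.1% OA, 0.02% Tween20; 120 min, 25° C, shaking; centrifuged, counted; IC₅₀ by one-site binding competition.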
row,Ratio hCT/hAmylin binding,Binder
1,17.7,B1
2,48.9,B2
3,44.9,B3
4,69.7,B4
5,26.8,B5

# Molecular target: T2, rat amylin receptor (rat calcitonin …)
# Assay: SPA competition with 125I-rat amylin, membranes of BHK cells with rat CTR + rat RAMP3 (Assay VI)
row,IC50,Binder
1,0.369 nM,B1
2,0.33 nM,B2
3,0.203 nM,B3
4,0.558 nM,B4
5,0.623 nM,B5

# Molecular target: T3, rat calcitonin receptor
# Assay: IC50 on rat CTR divided by IC50 on rat amylin receptor (Assays VIII/VI)
row,Ratio rCT/rAmylin binding,Binder
1,53.3,B1
2,142,B2
3,84.3,B3
4,201,B4
5,67.1,B5

# Molecular target: T3, rat calcitonin receptor
# Assay: SPA competition with 125I-calcitonin, membranes of BHK cells with rat CTR (Assay VIII)
row,IC50,Binder
1,19.6 nM,B1
2,46.8 nM,B2
3,17.1 nM,B3
4,112 nM,B4
5,41.8 nM,B5
